From article PMC12014896 (2025) come the findings set out here.

B1: COVIC-292 (antibody, V domains shown)
VH: QMQLVQSGPEVKKPGTSVKVSCKASGFTFSGSAVQWVRQARGQRLEWIGWIVVGSGNTNYAQRFQERVTITRDMSTSTAYMELSSLRSEDTAVYYCAAPYCSSTSCRDGFDIWGQGTMVTVSS
VL: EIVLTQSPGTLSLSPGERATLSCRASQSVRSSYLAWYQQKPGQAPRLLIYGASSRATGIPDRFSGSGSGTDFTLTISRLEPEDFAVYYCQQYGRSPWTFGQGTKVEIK
B2: COVIC-162 (antibody, V domains shown)
VH: QLQLQESGPGLVKPSETLSLTCTVSGGSISNSNYYWGWIRQPPGKGLEWIGSIYYSGRTYYNPSLKSRVTISVDTSKNQFSLKLSSVTAADTAVYYCARMGLLWFGEFYGMDVWGQGTTVTVSS
VL: DIQMTQSPSSLSASVGDRVTITCRASQGISSWLAWYQQKPEKAPKSLIYDASSLQRGVPSRFSGSGSGTDFTLTISSLQPEDFASYYCQQYNSYPLTFGGGTRVEIKR
B3: COVIC-305 (antibody, V domains shown)
VH: QVQLVQSGAEVKKPGSSVRVSCKVSGYTFTGYYMHWVRQAPGQGLEWMGIINPSGGSTSYAQKFQGRVTMTRDTSTSTVYMELSSLRSEDTAVYYCARVRVGASDAFDIWGQGTMVTVSS
VL: SYVLTQPPSVSVAPGQTARITCGGNNIGSKSVHWYQQKPGQAPVLVVYDDSDRPSGIPERFSGSNSGNTATLIISRVEAGDEADYYCQVWDSSSVHYVFGTGTKLTVLG
B4: COVIC-156 (antibody, V domains shown)
VH: EVQLVESGGGLIQPGGSLRLSCAASGVTVSSNYMNWVRQAPGKGLEWVSVIYSGGSTYYADSVKGRFTISRDNSKNTLFLQMNSLRAEDSAVYYCARDLGPYGVDVWGQGTTVTVSS
VL: DIQLTQSPSFLSASVGDRVTITCWASQGISSYLAWYQQKPGKAPKLLIYAASTLQSGVPSRFSGSGSGTEFTLTISSLQPEDFATYYCQELNSYPLTFGQGTRLEIKR
B5: COVIC-322 (antibody)
chain 1: EVQLLESGGGLVQPGGSLRLSCAASGRTFSEYAMGWFRQAPGKGLEFVSTISWSGGSTYYADSVKGRFTISRDNSKNTLYLQMNSLRAEDTAVYYCAAAGLGTVVSEWDYDYDYWGQGTLVTVSSGGGGSGGGGSASTKGPSVFPLAPSSKSTSGGTAALGCLVKDYFPEPVTVSWNSGALTSGVHTFPAVLQSSGLYSLSSVVTVPSSSLGTQTYICNVNHKPSNTKVDKKVEPKSCDKTHTAPELLGGPSVFLFPPKPKDTLMISRTPEVTCVVVDVSHEDPEVKFNWYVDGVEVHNAKTKPREEQYNSTYRVVSVLTVLHQDWLNGKEYKCKVSNKALPAPIEKTISKAKGQPREPQVYTLPPSRDELTKNQVSLTCLVKGFYPSDIAVEWESNGQPENNYKTTPPVLDSDGSFFLYSKLTVDKSRWQQGNVFSCSVMHEALHNHYTQKSLSLSPGKKKKPLDGEYFTLQIRGRERFEMFRELNEALELKDAQAGKEPG
chain 2: EVQLLESGGGLVQPGGSLRLSCAASGRTFSEYAMGWFRQAPGKGLEFVSTISWSGGSTYYADSVKGRFTISRDNSKNTLYLQMNSLRAEDTAVYYCAAAGLGTVVSEWDYDYDYWGQGTLVTVSSGGGGSGGGGSKRTVAAPSVFIFPPSDEQLKSGTASVVCLLNNFYPREAKVQWKVDNALQSGNSQESVTEQDSKDSTYSLSSTLTLSKADYEKHKVYACEVTHQGLSSPVTKSFNRGEC
B6: COVIC-170 (antibody, V domains shown)
VH: EVQLVQSGAEVKKPGESLKISCKGSGYSFTSYWIGWVRQMPGKGLEWMGIIYPGDSDTRYSPSFQGQVTISADKSISTAYLQWSSLKASDTAMYYCVRSYNWNYFDYWGQGTLVTVSS
VL: AIQLTQSPSSLSASVGDRVTITCRASQGISSGLAWYQQKAGKAPKLLIYDVSSLESGVPSRFSGSGSGTDFTLTISSLQPEDFATYYCQQFLSYPWTFGQGTKVEIKR
B7: COVIC-22 (antibody, V domains shown)
VH: EVQLLESGGGLVQPGGSLRLSCAASGFTFSRHAMNWVRQAPGKGLEWVSGISGSGDETYYADSVKGRFTISRDNSKNTLYLQMNSLRAEDTAVYYCARDLPASYYDSSGYYWHNGMDVWGQGTLVTVSS
B8: COVIC-312 (antibody)
chain 1: QVQLVQSGAEVKKPGSSVKVSCKASGGTFGISWVRQAPGQGLEWMGRIIPILGTANHAQKFQGRVTITADKSTGTVYMELSSLRSEDTAVYYCARDGDSGSYYETLGFDYWGQGTLVTVSSGGGGSGGGGSGGGGEVQLVESGGGLVKPGGSLRLSCAASGFTFSPYSMNWVRQAPGKGLEWVSSISVSNIYTYYADSVKGRFTISRDNAKNSLYLQMNSLRAEDTAIYYCARDLKKGGIQYDAFDIWGQGTVVTVSS
chain 2: QSALTQPPSASGSPGQSVTISCTGTSSDVGGYNYVSWYQQHPGKAPKLMIYEVNKRPSGVPDRFSGSKSGNTASLTVSGLQAEDEADYYCSSYAGSNNLVFGGGTKLTVLGGGGSGGGGSGGGGEIVLTQSPATLSLSPGERATLSCRASQSVNDYLAWYQQKPGQAPRLLIYDASNRATGFPARFSGSGSGTDFTLTISSLEPEDFAVYYCQQRSNWPPTFGQGTRLEIK
B9: COVIC-265 (antibody, V domains shown)
VH: QVQLVESGGGLVQPGGSLRLSCTVSGIDLSSYAMGWVRQAPGKGLEYIGIISGSGSTDYANWAKGRFTISRDNSKNTLYLQMNSLRAEDTAVYYCARAGYGVYGYAKYYGMDPWGQGTLVTVSS
VL: DIQMTQSPSSLSASVGDRVTITCKASEDIHYGLNWYQQKPGKAPKLLIYGATTLESGVPSRFSGSGSGTDFTLTISSLQPEDFATYYCQQGYSTPLTFGGGTKVEIK
B10: COVIC-333 (antibody, V domains shown)
VH: QVQLVQSGAEVKKPGSSVRVSCKASGGTFISYTFNWVRQAPGQGLEWMGRIIPIFGIVNYAQKFQGRVTIAADKSTSTAYMELSSLRSEDTAMYYCATATVDYDSGEEQSSFDPWGQGTLVTVSS
VL: EIVLTQSPGTLSLSPGERATLSCRASQSVSSSYLAWYQQKAGQTPRLLIYAASSRATGVPDRFSGSGSGTDFTLTISRLEAEDFAVYYCQQSWTFGQGTKVEIK
B11: COVIC-32 (antibody, V domains shown)
VH: QVQLLESGGGLVQPGGSLRLSCAASGFTFSSYAMSWVRQAPGKGLEWASAISGSGGSTYYADSVEGRFTISRDNSKNTLYLQMNSLRAEDTAVYYCAKDTGYCGDDCYIKLIRGGPDYWGQGTLVTVSS
VL: DIVMTQSPLSLPVTLGQPASISCRSSQSLVYSDGNTFLNWFQQRPGQSPRRLIYQVSNRDSGVPDRFSGSGSGTDFTLKISRVEAEDVGVYYCMQGTHWPRTFGQGTKLEIK
B12: COVIC-63 (antibody)
chain: QVQLQESGGGLVQAGGSLRLSCAASGRTFSEYAMGWFRQAPGKEREFVATISWSGGSTYYTDSVKGRFTISRDNAKNTVYLQMNSLKPDDTAVYYCAAAGLGTVVSEWDYDYDYWGQGTQVTVSSGGSGGSQVQLQESGGGLVQAGGSLRLSCAASGRTFSEYAMGWFRQAPGKEREFVATISWSGGSTYYTDSVKGRFTISRDNAKNTVYLQMNSLKPDDTAVYYCAAAGLGTVVSEWDYDYDYWGQGTQVTVSSGGGGSGGGGSEPKSCDKTHTCPPCPAPELLGGKKKPLDGEYFTLQIRGRERFEMFRELNEALELKDAQAGKEPG
B13: COVIC-336 (antibody, V domains shown)
VH: QITLKESGPTLVKPTQTLTLTCTFSGFSLSSGGVGVGWIRQPPGKALEWLALIYWDDDKRYRPSLKSRLTITRDTSTNQVVLTMTNMDPVDTATYFCARHQIATVFDHWGQGTLVTVSS
VL: QSALTQPASVSGSPGQSITISCTGTSSDVGGYNYVSWYQQHPGKAPKLMIYEVSNRPSGVSSRFSGSKSGNTASLTISGLQAEDEADYYCSSYTRSSPLVAFGGGTKVTVL
B14: COVIC-317 (antibody)
chain: EVQLLESGGGLVQPGGSLRLSCAASGRTFSEYAMGWFRQAPGKGLEFVSTISWSGGSTYYADSVKGRFTISRDNSKNTLYLQMNSLRAEDTAVYYCAAAGLGTVVSEWDYDYDYWGQGTLVTVSSGGGGSGGGGSASTKGPSVFPLAPSSKSTSGGTAALGCLVKDYFPEPVTVSWNSGALTSGVHTFPAVLQSSGLYSLSSVVTVPSSSLGTQTYICNVNHKPSNTKVDKKVEPKSCDKTHTAPELLGGPSVFLFPPKPKDTLMISRTPEVTCVVVDVSHEDPEVKFNWYVDGVEVHNAKTKPREEQYNSTYRVVSVLTVLHQDWLNGKEYKCKVSNKALPAPIEKTISKAKGQPREPQVYTLPPSRDELTKNQVSLTCLVKGFYPSDIAVEWESNGQPENNYKTTPPVLDSDGSFFLYSKLTVDKSRWQQGNVFSCSVMHEALHNHYTQKSLSLSPGKKKKPLDGEYFTLQIRGRERFEMFRELNEALELKDAQAGKEPGGGGGSGGGGSEVQLLESGGGLVQPGGSLRLSCAASGRTFSEYAMGWFRQAPGKGLEFVSTISWSGGSTYYADSVKGRFTISRDNSKNTLYLQMNSLRAEDTAVYYCAAAGLGTVVSEWDYDYDYWGQGTLVTVSS
B15: COVIC-296 (antibody, V domains shown)
VH: EVQLVESGGGLVQPGGSLRLSCAASGITVSSNYMNWVRQAPGKGLEWVSVIYSGGSTFYADSVKGRFTVSRHNSKNTLYLQMNSLRVEDTAVYYCAREGLVGTALAFDYWGQGNLVTVSS
VL: DIQMTQSPSSLSASVGDRVTITCRASQSINNYLNWYQQKPGKAPNLLIYAASSLQSGVPSRFSGSGSGTDFTLTINSLQPEDFATYYCQQSYSTPPYTFGQGTKLEIK
B16: COVIC-238 (antibody, V domains shown)
VH: QVQLVQSGSELKKPGASVKVSCKASGYTFTTYVMNWVRQAPGQGLEWMGWINTNTGNPTYAQGFTGRFVFSLDTSVSTASLQISSLKAEDTAVYYCSSEITTLGGMDVWGQGTTVTVSS
VL: ASYVLTQPPSVSVAPGKTARITCGGNNIGSKSVHWYQQKPGQAPVLVIYYDSDRPSGIPERFSGSNSGNTATLTISGVEAGDEADYYCQVWDSISDHRVFGGGTKLTVLG
B17: COVIC-392 (antibody, V domains shown)
VH: QVQLLESGGGLVQPGRSLRLSCAASGFTFDDYAMHWVRQPPGKGLEWVSGSSWNSGSVVYADSVKGRFTISRDSAKNSLHLQMNSLRVEDTALYYCAKAVDPTRGSYSPDYGFDIWGQGTMVTVS
VL: not shown

This assay concerns the target SARS-CoV-2 spike RBD (Wuhan-Hu-1) (Severe acute respiratory syndrome …, UniProt P0DTC2). As to the kind of experiment: SPR. (SPR reads the build-up and loss of mass on a sensor chip optically.)
Usually Kd stands for the constant that tells how readily two partners part at equilibrium. As for B1, the affinity, expressed as Kd, was 6.71 nM. The figure for B2 is 191 nM; for B3 it is 7.27 nM; for B4 it is 0.446 nM. Consider B5, for which binding was characterised by a dissociation constant (Kd) of 30.2 nM. This Kd lies about 68-fold higher than the previous one. The molecule B6 gave a Kd of 1.16 nM. Turning to B7, the Kd was determined as 0.414 nM. As to B8, the Kd came to 0.347 nM.

The molecule B9 displayed a Kd of 1.55 nM. The molecule B10 displayed a dissociation constant (Kd) of 0.0111 nM. Consider B11, for which binding was put at a Kd of 1.76 nM. Consider B12, for which the Kd amounted to 185 nM. In turn, B13 came in with a Kd of 2.14 nM.

B14 displayed a Kd of 41.3 nM. Compared with the last molecule, the Kd is about 19-fold higher. The figure for B15 is 0.501 nM. B16 showed a Kd of 0.873 nM. Then B17, with 0.0871 nM.
